In patent US20130079286A1 (Pieris, published 2013):

Experiments:
Trx-Aβ28 fusion protein [1] = target: T1, Trx-Aβ28 fusion protein (Escherichia coli (strain K12), UniProt P0AA25 1-76 = thioredoxin, Biotin-labelled through an NHS ester (2:1) in the capture and competitive ELISAs; unlabeled in the direct ELISA and as competitor.); experiment: direct ELISA: Trx-Aβ28 coated, mutein titrated, detected via Strep-tag II
T1 construct: the entry may be a nucleic acid; also called TrxAbeta28H6
Description: (§1) The Aβ targets Trx-Aβ28 and MBP-Aβ40 as well as the control protein maltose binding protein (MBP) were immobilized at 2 μM in PBS over night. Bound Lcn2 muteins were detected via their Strep-tag II using Streptavidin/AP followed by a chromogenic reaction with pNPP. As a control, the binding of wild-type (wt) lipocalin was tested. The data were fitted to a monovalent binding model.
(§2) Alternatively, for a “direct” ELISA, 2 μM unlabeled Aβ40 target from Example 2 was adsorbed onto a 96-well MaxiSorp polystyrene microliter plate (Nunc, Langenselbold, Germany) and incubated with the purified Lcn2 mutein, which was detected via the Strep-tag II using a 1:1500 dilution of Streptavidin/AP conjugate (GE Healthcare UK Ltd, Buckinghamshire, UK). As a control, 2 μM MBP from Example 2 was adsorbed onto the ELISA plate. Absorption at 405 nm was measured in a SpectraMax 250 reader (Molecular Devices, Sunnyvale, USA).

ovalbumin = target: T2, ovalbumin (UniProt P01012 2-386); experiment: capture ELISA: 1 µM Lcn2 protein captured via Strep-tag II on coated StrepMAB-Immo, biotinylated target titrated, ExtrAvidin/AP + pNPP
T2 sequence (looked up): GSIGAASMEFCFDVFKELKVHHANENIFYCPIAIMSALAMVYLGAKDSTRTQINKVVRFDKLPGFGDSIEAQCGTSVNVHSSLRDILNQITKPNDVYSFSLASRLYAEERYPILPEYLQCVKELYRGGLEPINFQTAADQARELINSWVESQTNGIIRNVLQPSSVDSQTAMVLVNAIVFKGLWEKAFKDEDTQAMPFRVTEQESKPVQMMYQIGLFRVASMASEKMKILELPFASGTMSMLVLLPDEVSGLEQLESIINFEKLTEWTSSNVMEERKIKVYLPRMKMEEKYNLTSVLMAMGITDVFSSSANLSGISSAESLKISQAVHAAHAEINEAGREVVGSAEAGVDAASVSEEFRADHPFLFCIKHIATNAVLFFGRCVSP
Description: (§3) FIG. 5 depicts the binding activity of the Lcn2 muteins H1-G1, S1-A4, and US7 in capture ELISAs with different biotinylated Aβ targets. StrepMAB-Immo at 10 μg/ml was immobilized on microtitre plates and employed for capturing of 1 JAM Lcn2 muteins via the Strep-tag H. In figures A to C the binding of the Lcn2 muteins S1-A4 and US7 to (A) biotinylated Aβ40, (B) biotinylated Trx-Aβ28, and (C) biotinylated MBP-Aβ40 are shown. Binding was detected by incubation with ExtrAvidin/AP and a subsequent chromogenic reaction with pNPP. Ovalbumin (Ova), thioredoxin (Trx), and maltose binding protein (MBP) were used as negative controls. Additionally, binding of wild-type (wt) lipocalin was tested. The data were fitted to a monovalent binding model.
(§4) For selective capturing of the Lcn2 muteins carrying the C-terminal Strep-tag II (Schmidt and Skerra (2007) Nat. Protoc. 2, 1528-1535), a 96-well MaxiSorp polystyrene microtitre plate (Nunc, Langenselbold, Germany) was coated with 10 μg/mL StrepMAB-Immo (IBA, Göttingen, Germany) in PBS over night at 4° C. and blocked with 3% (w/v) BSA in PBS/T at room temperature for 1 h. After 3 washing steps with PBS/T, 50 μL of a 1 μM solution of the purified Lcn2 muteins from Example 7 were applied to all wells for 1 h. After washing, 50 μL of a dilution series of the biotinylated targets Aβ40, MBP-Aβ40 or Trx-Aβ28 from Example 2 were added and incubated for 1 h whereby the biotinylated forms of Ova, MBP and Trx from Example 2 served as negative control proteins. The wells were washed again and bound conjugate was detected with 50 μL of ExtrAvidin/AP conjugate (Sigma-Aldrich, Steinheim, Germany) diluted 1:5000 in PBS/T for 1 h, followed by signal development in the presence of 100 μL 0.5 mg/mL p-nitrophenyl phosphate (AppliChem, Darmstadt, Germany) in 100 mM Tris/HCl, pH 8.8, 100 mM NaCl, 5 mM MgCl₂.

Trx-Aβ28 fusion protein [2] = target: T1, Trx-Aβ28 fusion protein; experiment: capture ELISA: mutein captured, biotinylated Trx-Aβ28 titrated
Description: as §3, §4

MBP-Aβ40 fusion protein [3] = target: T3, MBP-Aβ40 fusion protein; experiment: SPR (Biacore), MBP-Aβ40 amine-coupled (1455 RU), mutein as analyte
T3 construct: the entry may be a nucleic acid; Biotin-labelled in the capture ELISA, unlabeled in the direct ELISA and SPR; also called MBP-Abeta40
Description: (§5) FIG. 8 depicts the kinetic real time analysis of Lcn2 muteins S1-A4 (A) and US7 (B) measured on a Biacore instrument at a flow rate of 10 μl/min. The MBP-Aβ40 fusion protein was coupled via amine chemistry on a CMD 200I chip (ΔRU=1455) and each of the purified Lcn2 muteins was applied in a series at different concentrations. The measured signal is shown as a grey line whereas the curve fit is depicted as a black line in each case.
(§6) Real time analysis of Lcn2 muteins was performed on a Biacore X system (Biacore, Uppsala, Sweden) using PBS/T (PBS containing 0.005% (v/v) Tween 20) as running buffer. A 50 μg/mL solution of MBP-Aβ40 from Example 2 in 10 mM Na-acetate, pH 4.5 was immobilized onto a […] chip (Xantec, Düsseldorf, Germany) using standard amine coupling chemistry, resulting in a ligand density of 1455 resonance units (RU). […] The sensorgrams were corrected by subtraction of the corresponding signals measured for the control channel, which had been activated and blocked with ethanolamine. […] During this step the kₒₙ and koff rates were fitted globally, while the maximum response difference Rₘₐₓ was fitted locally for each curve.

[4] = target: T4, biotinylated Aβ40 peptide (human, C-terminal biotin group attached via a lysine spacer); experiment: capture ELISA: mutein captured via Strep-tag II on StrepMAB-Immo, biotinylated Aβ40 titrated
T4 construct: Synthetic peptide (Peptide Speciality Laboratory) with a C-terminal biotin on a lysine spacer; used in the capture ELISAs
T4 sequence (peptide, as listed by the source): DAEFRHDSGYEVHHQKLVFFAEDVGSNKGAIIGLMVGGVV
Description: as §3, §4

Trx-Aβ28 fusion protein [5] = target: T1, Trx-Aβ28 fusion protein; experiment: competitive ELISA: mutein captured, 40 nM biotinylated Trx-Aβ28 as tracer, unlabeled Trx-Aβ28 varied as competitor
Description: Alternatively, a “competitive” ELISA was performed in a similar manner as the “capture” ELISA described above. Again, after immobilizing StrepMAB-Immo and washing, 50 μL of a 1 μM solution of the purified Lcn2 mutein from Example 7 was applied to all wells for 1 h. After washing, the biotinylated target Trx-Aβ28 from Example 2 was applied at a fixed concentration of 5 nM (for S1-A4) or 40 nM (for US7) in the presence of varying concentrations of the free non-labeled Trx-Aβ28 target as competitor. Starting with a 100-fold excess, the competitor concentration was decreased by the factor 3 in each step. In this case, the data were fitted to the sigmoidal equation

MBP-Aβ40 fusion protein [6] = target: T3, MBP-Aβ40 fusion protein; experiment: capture ELISA: mutein captured, biotinylated MBP-Aβ40 titrated
Description: as §3
For selective capturing of the Lcn2 muteins carrying the C-terminal Strep-tag II (Schmidt and Skerra (2007) Nat. Protoc. 2, 1528-1535), a 96-well MaxiSorp polystyrene microtitre plate (Nunc, Langenselbold, Germany) was coated with 10 μg/mL StrepMAB-Immo (IBA, Göttingen, Germany) in PBS over night at 4° C. and blocked with 3% (w/v) BSA in PBS/T at room temperature for 1 h. After 3 washing steps with PBS/T, 50 μL of a 1 μM solution of the purified Lcn2 muteins from Example 7 were applied to all wells for 1 h. […]

central peptide Aβ16-27 = target: T5, central peptide Aβ16-27; experiment: capture ELISA: mutein captured, Aβ16-27 titrated
T5 construct: Bought from the Peptide Speciality Laboratory
T5 peptide: KLVFFAEDVGSN

MBP-Aβ40 fusion protein [7] = target: T3, MBP-Aβ40 fusion protein; experiment: SPR (Biacore X), MBP-Aβ40 amine-coupled, mutein as analyte
Description: as §6

[8] = target: T6, Aβ40 peptide, non-labeled (human); experiment: SPOT membrane of overlapping Aβ40 peptides, 100 nM mutein
T6 construct: Non-labeled synthetic peptide (W. M. Keck Laboratory); also called Abeta40; amyloid beta peptide
T6 sequence (peptide, as listed by the source): as above

MBP-Aβ40 fusion protein [9] = target: T3, MBP-Aβ40 fusion protein; experiment: SPR (Biacore), MBP-Aβ40 amine-coupled; same experiment as the 1st table, row 20, column 3, printed with more digits
Description: as §5, §6

MBP-Aβ40 fusion protein [10] = target: T3, MBP-Aβ40 fusion protein; experiment: direct ELISA: MBP-Aβ40 coated, mutein titrated, detected via Strep-tag II
Description: as §1, §2

Trx-Aβ28 fusion protein [11] = target: T1, Trx-Aβ28 fusion protein; experiment: capture ELISA: 1 µM Lcn2 protein captured via Strep-tag II on coated StrepMAB-Immo, biotinylated target titrated, ExtrAvidin/AP + pNPP
Description: as §3, §4

[12] = target: T4, biotinylated Aβ40 peptide; experiment: as above
Description: as §3, §4

[13] = target: T7, recombinant human fibronectin fragment FN7B8 (human, UniProt P02751 1173-1448); experiment: ELISA: FN7B8 coated, Lcn2 protein titrated, detected via Strep-tag II with Streptavidin-alkaline phosphatase + pNPP
T7 construct: no separate number is printed for the protein, so the entry may be a nucleic acid
T7 sequence (P02751 other isoform, or with tags, fused parts or gaps limits assumed): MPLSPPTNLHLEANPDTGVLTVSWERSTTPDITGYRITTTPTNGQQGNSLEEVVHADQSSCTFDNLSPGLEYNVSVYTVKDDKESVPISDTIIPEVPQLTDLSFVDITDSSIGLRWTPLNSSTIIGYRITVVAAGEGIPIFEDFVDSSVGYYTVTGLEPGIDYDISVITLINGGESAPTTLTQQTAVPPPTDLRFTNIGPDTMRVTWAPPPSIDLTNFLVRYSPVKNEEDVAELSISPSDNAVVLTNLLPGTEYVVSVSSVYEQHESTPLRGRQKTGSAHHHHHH
Description: FIG. 12 depicts binding activity in the ELISA. A microliter plate was coated with the purified proteins FN7B8 and FN789 and incubated with a dilution series of the selected Lcn2 muteins, followed by detection with Streptavidin-alkaline-phosphatase conjugate and pNPP substrate.
To adsorb FN7B8 or FN789 onto the surface of a 96-well Nunc Maxisorp plate (Thermo Fisher Scientific, Langenselbold, Germany) 50 μl of a 100 μg/ml protein solution in TBS/E was added per well and incubated at room temperature for 2 h. Additionally, to include control proteins, blank wells were exposed to 120 μl 2% (w/v) BSA (AppliChem, Darmstadt, Germany) in TBS/ET. […] The wells were washed again and bound Lcn2 muteins were detected with 50 μL of Streptavidin-alkaline phosphatase conjugate (GE Healthcare, Munich, Germany) diluted 1:1500 in TBS/T for 1 h, followed by signal development in the presence of 50 μl 0.5 mg/ml p-nitrophenyl phosphate in 100 mM Tris/HCl, 100 mM NaCl, 5 mM MgCl₂, pH 8.8. The time course of absorption AA/At at 405 nm was measured in a SpectraMax 250 reader (Molecular Devices, Sunnyvale, Calif.) and the data were fitted with KaleidaGraph software (Synergy software, Reading, Pa.) to the equation

[14] = target: T6, Aβ40 peptide, non-labeled; experiment: SPOT membrane of overlapping Aβ40 peptides

Binder	Kd (Trx-Aβ28 fusion protein [1])	binding result (ovalbumin)	Kd (Trx-Aβ28 fusion protein [2])	koff (MBP-Aβ40 fusion protein [3])	kon (MBP-Aβ40 fusion protein [3])	Kd [4]	Kd (Trx-Aβ28 fusion protein [5])	Kd (MBP-Aβ40 fusion protein [6])	Kd (central peptide Aβ16-27)	Kd (MBP-Aβ40 fusion protein [7])	binding result [8]	Kd (MBP-Aβ40 fusion protein [9])	Kd (MBP-Aβ40 fusion protein [10])	binding result (Trx-Aβ28 fusion protein [11])	binding result [12]	binding result [13]	binding result [14]
Lcn2 mutein US7 (designed binder) QDSTSDLIPAPPLSKVPLQQNFQDNQFHGKWYVVGVAGNKSLREDKDPWKMYATIYELKEDKSYNVTSVGFGTKKCHYKIRTFVPGSQPGEFTLGRIKSRPGRTSALVRVVSTNYNQHAMVFFKVVQQNRESFNITLYGRTKELTSELKENFIRFSKSLGLPENHIVFPVPIDQCIDG	9.6 nM	no binding (tested: 250 nM)	2.4 nM	0.000252 s⁻¹	202000 M⁻¹ s⁻¹	6.8 nM	76.9 nM	11.4 nM	2.1 nM	1.3 nM	binds	1.25 nM	49.7 nM	–	–	–	–
recombinant wild-type human Lipocalin 2 (other, also called wt Lcn2; wild type Lcn2) QDSTSDLIPAPPLSKVPLQQNFQDNQFQGKWYVVGLAGNAILREDKDPQKMYATIYELKEDKSYNVTSVLFRKKKCDYWIRTFVPGSQPGEFTLGNIKSYPGLTSYLVRVVSTNYNQHAMVFFKKVSQNREYFKITLYGRTKELTSELKENFIRFSKSLGLPENHIVFPVPIDQCIDG	–	no binding (tested: 250 nM)	–	–	–	–	–	–	–	–	–	–	–	no binding	no binding	no binding (tested: 250 nM)	no binding (tested: 100 nM)
